The values that follow come from PMC8816346 (Science Advances, 2022).

The experiment deals with TOPBP1, purified recombinant (human, UniProt Q92547 1-1522). Description: pull-down.
Chain of TOPBP1, purified recombinant (Q92547 whole entry): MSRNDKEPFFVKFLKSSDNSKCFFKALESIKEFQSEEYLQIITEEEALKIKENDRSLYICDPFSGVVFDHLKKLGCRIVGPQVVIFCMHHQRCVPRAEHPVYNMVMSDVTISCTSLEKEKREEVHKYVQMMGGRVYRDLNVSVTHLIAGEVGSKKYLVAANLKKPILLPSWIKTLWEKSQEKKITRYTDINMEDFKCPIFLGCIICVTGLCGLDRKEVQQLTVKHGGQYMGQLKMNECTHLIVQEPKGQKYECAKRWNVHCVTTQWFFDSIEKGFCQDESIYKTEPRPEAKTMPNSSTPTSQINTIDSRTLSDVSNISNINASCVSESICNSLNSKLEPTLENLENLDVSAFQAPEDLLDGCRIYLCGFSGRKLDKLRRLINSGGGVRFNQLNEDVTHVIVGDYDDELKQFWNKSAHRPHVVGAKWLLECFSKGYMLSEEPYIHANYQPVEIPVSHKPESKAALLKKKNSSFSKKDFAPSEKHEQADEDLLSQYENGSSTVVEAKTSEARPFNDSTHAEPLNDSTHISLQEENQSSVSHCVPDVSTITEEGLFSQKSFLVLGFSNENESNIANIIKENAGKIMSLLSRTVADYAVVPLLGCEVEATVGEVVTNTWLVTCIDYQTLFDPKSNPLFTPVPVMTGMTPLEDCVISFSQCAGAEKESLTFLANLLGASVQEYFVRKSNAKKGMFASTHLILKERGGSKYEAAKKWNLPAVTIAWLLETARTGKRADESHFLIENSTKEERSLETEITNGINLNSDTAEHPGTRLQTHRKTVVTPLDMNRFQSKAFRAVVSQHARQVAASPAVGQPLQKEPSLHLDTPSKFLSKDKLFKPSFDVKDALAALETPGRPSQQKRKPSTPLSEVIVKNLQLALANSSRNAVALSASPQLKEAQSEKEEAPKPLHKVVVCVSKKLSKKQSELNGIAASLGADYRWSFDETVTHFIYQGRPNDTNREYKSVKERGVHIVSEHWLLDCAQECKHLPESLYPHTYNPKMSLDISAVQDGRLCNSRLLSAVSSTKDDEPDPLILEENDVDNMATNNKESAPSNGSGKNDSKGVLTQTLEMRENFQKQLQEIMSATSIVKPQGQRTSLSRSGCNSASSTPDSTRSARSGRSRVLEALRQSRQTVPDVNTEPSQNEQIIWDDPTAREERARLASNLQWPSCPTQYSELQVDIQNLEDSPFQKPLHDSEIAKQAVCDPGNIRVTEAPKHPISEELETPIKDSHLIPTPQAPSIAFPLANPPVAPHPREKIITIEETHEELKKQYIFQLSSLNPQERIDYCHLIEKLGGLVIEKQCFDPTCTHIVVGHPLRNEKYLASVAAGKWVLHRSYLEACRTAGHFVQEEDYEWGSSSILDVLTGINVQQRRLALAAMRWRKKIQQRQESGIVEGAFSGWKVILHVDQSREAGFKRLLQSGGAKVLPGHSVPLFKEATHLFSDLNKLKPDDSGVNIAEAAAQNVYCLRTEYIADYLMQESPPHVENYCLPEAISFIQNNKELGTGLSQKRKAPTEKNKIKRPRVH

B1: BLM^λ (BLM^P dephosphorylated with λ-phosphatase) (natural protein)
chain: not shown
In the case of B1, the binding result is “binds”.
